Reference: patent publication US8552166, “High-affinity nucleic acid aptamers against sclerostin protein” (The University of Hong Kong)

Target: Sclerostin (SOST) (Mus musculus, UniProt Q99P68 Q99P68:1-211)
Test: ITC; PBS, 25 C; n=0.91, dH -10.9 kcal/mol, TdS -2.3 kcal/mol
Conditions: tags: GST fusion (pGEX-4T1, E. coli BL21(DE3)); parallel G4 (CD, Tm 75 C)
Procedure: Sclerostin-aptamer interaction was investigated by studying the thermodynamics of the interaction of aptamer Scl 2 with sclerostin by Isothermal Titration Calorimetry. In the upper panel of FIG. 7 the calorimetric titrations of the aptamers into sclerostin solution conducted at 25° C. An exothermic heat pulse was observed after each injection of aptamers into the protein solution. The binding stoichiometry was fitted using simple single site binding model. […] The dissociation constant for the interaction of aptamer Scl 2 with sclerostin is 500 nM that is a competitive value in DNA-protein interactions. In addition, the values of ΔH and ΔS reveal that the binding processes are enthalpically driven with a favorable enthalpy of reaction (ΔH) at 25° C. of −10.9 kcal/mol offset by an unfavorable entropy of reaction (TΔS=−2.3 kcal/mol).
For Isothermal Titration Calorimetry, equilibrium binding studies between anti-sclerostin aptamers and scleorstin are performed on MicroCal VP-ITC. In a typical ITC experiment, 15 μM GST-sclerostin or 20 μM GST was loaded into the cell with 200 μM aptamer or random sequence in the titrating syringe. GST-sclerostin and GST were dialyzed into the PBS buffer with a MWCO of 10,000. The titration experiments were performed at 25° C. with an initial 0.2 μl injection, followed by thirty 1.2 μl A injections. The spacing between injections was 200 s. […]

Sclerostin (SOST), sequence (Q99P68 whole entry, one chain of several): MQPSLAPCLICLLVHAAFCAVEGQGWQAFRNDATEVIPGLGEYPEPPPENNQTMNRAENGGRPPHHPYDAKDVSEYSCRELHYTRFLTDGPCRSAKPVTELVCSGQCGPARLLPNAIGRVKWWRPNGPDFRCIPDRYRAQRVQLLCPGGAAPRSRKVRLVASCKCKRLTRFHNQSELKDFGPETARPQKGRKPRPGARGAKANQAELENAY

B1: Scl 2 (ssDNA)
DNA: TTGCGCGTTAATTGGGGGGGTGGGTGGGTT
Kd: 500 nM
